Experimental data as given in paper PMC6420462.
One block for each substance: values may come before it.

Biological target: T1, GluK5-WT (kainate receptor subunit GluK5) (UniProt Q16478)
T1 sequence: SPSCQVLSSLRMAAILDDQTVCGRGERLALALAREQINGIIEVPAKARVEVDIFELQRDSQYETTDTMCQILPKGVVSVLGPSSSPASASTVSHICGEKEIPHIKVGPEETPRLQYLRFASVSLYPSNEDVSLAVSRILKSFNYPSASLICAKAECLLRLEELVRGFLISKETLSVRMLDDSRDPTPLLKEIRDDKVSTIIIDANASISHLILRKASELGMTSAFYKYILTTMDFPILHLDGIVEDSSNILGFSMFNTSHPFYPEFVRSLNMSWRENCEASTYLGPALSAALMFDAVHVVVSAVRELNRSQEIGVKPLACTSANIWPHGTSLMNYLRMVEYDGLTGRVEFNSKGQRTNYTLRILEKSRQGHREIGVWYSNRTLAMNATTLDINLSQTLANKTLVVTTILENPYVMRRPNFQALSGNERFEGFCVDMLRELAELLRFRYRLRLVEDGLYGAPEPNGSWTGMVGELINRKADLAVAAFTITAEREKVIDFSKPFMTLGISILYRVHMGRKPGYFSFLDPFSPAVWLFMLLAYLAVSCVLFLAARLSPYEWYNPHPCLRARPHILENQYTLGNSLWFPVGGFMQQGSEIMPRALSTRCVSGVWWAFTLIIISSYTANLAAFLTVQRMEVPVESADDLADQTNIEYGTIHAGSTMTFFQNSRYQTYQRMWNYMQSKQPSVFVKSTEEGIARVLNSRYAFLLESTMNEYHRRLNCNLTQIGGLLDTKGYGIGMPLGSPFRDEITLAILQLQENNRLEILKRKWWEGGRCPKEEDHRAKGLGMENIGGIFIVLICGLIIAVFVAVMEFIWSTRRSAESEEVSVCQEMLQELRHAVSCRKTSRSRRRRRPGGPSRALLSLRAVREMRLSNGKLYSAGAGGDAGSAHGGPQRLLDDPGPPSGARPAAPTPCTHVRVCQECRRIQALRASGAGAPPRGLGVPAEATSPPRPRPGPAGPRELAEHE

cell surface (biotinylated) GluK2-A487L, % of total, on co-expression with GluK5-WT in HEK293 cells: 14% | cell surface (biotinylated) GluK5, % of total, on co-expression with GluK2-A487L in HEK293 cells (GluK5 alone not detectable on the surface): 14% | increase in cell surface GluK2-A487L on co-expression with GluK5-WT against the homomeric subunit: 5 fold
Substance: GluK2-A487L (from UniProt Q13002 32-908) (receptor)

cell surface (biotinylated) GluK2-A487T, % of total, on co-expression with GluK5-WT in HEK293 cells: 18% | cell surface (biotinylated) GluK5, % of total, on co-expression with GluK2-A487T in HEK293 cells (GluK5 alone not detectable on the surface): 20%
Substance: GluK2-A487T (from UniProt Q13002 32-908) (receptor)

cell surface (biotinylated) GluK2-S689N/N690S, % of total, on co-expression with GluK5-WT in HEK293 cells: 12% | cell surface (biotinylated) GluK5, % of total, on co-expression with GluK2-S689N/N690S in HEK293 cells (GluK5 alone not detectable on the surface): 10%
Substance: GluK2-S689N/N690S (from UniProt Q13002 32-908) (receptor)

cell surface (biotinylated) GluK2-T659V, % of total, on co-expression with GluK5-WT in HEK293 cells: 28% | cell surface (biotinylated) GluK5, % of total, on co-expression with GluK2-T659V in HEK293 cells (GluK5 alone not detectable on the surface): 26% | increase in cell surface GluK2-T659V on co-expression with GluK5-WT against the homomeric subunit: 7 fold
Substance: GluK2-T659V (from UniProt Q13002 32-908) (receptor)

cell surface (biotinylated) GluK2, % of total, on co-expression with GluK5-WT in HEK293 cells: 28% | cell surface (biotinylated) GluK5, % of total, on co-expression with GluK2-WT in HEK293 cells (GluK5 alone not detectable on the surface): 27%
Substance: GluK2-WT (human GluK2a(Q) kainate receptor subunit) (from UniProt Q13002 32-908)
